Source: the supplement of paper PMC10567573

B1: FBXO33 (parent)
chain: RLRGLLRVLRGRPGAGSRRRGRMA
B2: HESX1 (parent)
chain: HVPNPPSGISFPSVVDHPMPEERA

Variants of: B1
Experiment: protein stability index of a GFP-peptide fusion (GPS, HEK-293T) (PSI 1-6); higher = more stable
Conditions: c terminus: a fixed tail appended
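Also: lentivirally expressed fusions sorted by FACS into six bins by GFP to DsRed ratio, PSI derived from sequencing read proportions per bin multiplied by bin number.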

Variant | protein stability index
R19T | 1.75
R19W | 1.48
A24E | 2.54
A24D | 1.04
A24Q | 2.74
A24L | 1.64
A24P | 3.3
A24W | 2.42
A24Y | 2.27
A24F | 2.73
A24I | 1.46
A24R | 2.63
R22I | 2.78
R22S | 1.99
R22W | 1.65
R22N | 1.77
R22C | 2.09
R22M | 2.25
R22K | 1.76
R22H | 2.33
R22Y | 1.7
G21F | 1.58

Variant | protein stability index
G21I | 2.32
G21D | 1.78
G21R | 3.38
G21P | 1.69
G21H | 1.66
G21L | 1.57
G21C | 1.39
M23V | 1.97
M23H | 2.42
M23N | 2.02
M23T | 2.44
M23L | 2.89
M23P | 1.58
R20C | 1.72
R20F | 1.13
R20A | 4.73
R20V | 2.39
R20Q | 1.56
R20H | 1.23
R20E | 2.29
R20M | 2.24

Variants of: B2
Experiment: as above
Conditions: c terminus: a fixed tail appended

Variant | protein stability index
S10V | 2.58
S10K | 2.38
S10E | 3.39
S10A | 2.79
S10T | 2.97
S10G | 2.25
S10I | 2.59
S10N | 3.5
S10W | 1.97
S10Q | 2.42
S10C | 2.19
S10R | 2.03
S10M | 2.56
S10F | 2.61
S10L | 2.38
S10Y | 2.18
S10D | 3.77
S10P | 2.29
S10H | 2.81
S7H | 2.54
S7R | 2.9
S7I | 3.4
S7E | 3.57
S7C | 2.38
S7Y | 2.04

Variant | protein stability index
S7K | 2.93
S7T | 2.75
S7G | 2.4
S7W | 1.71
S7P | 2.7
S7F | 2.15
S7V | 3.3
S7N | 2.99
S7A | 3.88
S7D | 2.8
S7M | 2.74
S7L | 3.61
S7Q | 2.84
N4A | 1.65
N4W | 3.44
N4I | 3.54
N4T | 2.22
N4C | 2.23
N4L | 4.27
N4V | 2.71
N4D | 3.88
N4Q | 3.45
N4K | 3.76
N4E | 3.8
N4F | 3.47

Variant | protein stability index
N4R | 4.18
N4Y | 3.06
N4G | 1.66
N4S | 2.24
N4M | 3.04
N4H | 3.09
S13F | 1.89
S13N | 3.04
S13R | 2.59
S13Y | 1.94
S13M | 2.08
S13A | 2.55
S13G | 2.81
S13E | 3.65
S13W | 2.14
S13T | 2.45
S13V | 2.43
S13Q | 2.71
S13K | 1.71
S13I | 2.58
S13H | 2.33
S13L | 2.09
S13C | 2.45
S13D | 3.94
S13P | 2.73

Variant | protein stability index
F11V | 4.42
F11H | 4.48
F11Q | 4.83
F11R | 4.37
F11P | 5.21
F11I | 4.39
F11G | 4.65
F11E | 5.4
F11A | 5
F11W | 2.54
F11S | 4.86
F11K | 5.12
F11D | 5.23
F11L | 4.93
F11C | 4.39
F11N | 4.54
F11M | 4.88
F11Y | 4.22
F11T | 4.8
P5C | 2.45
P5A | 2.71
P5H | 2.6
P5S | 3.76
P5W | 2.39
P5T | 2.74

Variant | protein stability index
P5D | 3.96
P5N | 3.03
P5L | 2.53
P5G | 1.93
P5Y | 2.03
P5R | 3.28
P5Q | 3.5
P5E | 3.81
P5V | 2.82
P5F | 2.38
P5I | 3.02
P5M | 2.95
P5K | 2.69
V15T | 3.13
V15F | 3.28
V15H | 3.23
V15A | 2.65
V15I | 3.16
V15W | 2.17
V15S | 2.99
V15N | 3.22
V15L | 3.61
V15D | 4.55
V15Y | 3.03
V15Q | 3.63

Variant | protein stability index
V15K | 3.2
V15R | 3.11
V15G | 3.85
V15C | 2.04
V15E | 3.93
V15M | 3.49
V15P | 3.06
G8R | 2.94
G8Q | 3.18
G8P | 4.09
G8L | 3.17
G8M | 2.59
G8F | 2.84
G8N | 3.48
G8Y | 2.09
G8W | 2.87
G8C | 2.36
G8V | 2.87
G8D | 4.1
G8A | 3.2
G8K | 3.62
G8T | 2.91
G8H | 3.49
G8E | 3.01
G8I | 2.83

Variant | protein stability index
G8S | 3.03
P12Y | 2.56
P12Q | 3.92
P12R | 3.42
P12G | 3.82
P12M | 2.72
P12I | 2.43
P12C | 2.72
P12A | 3.44
P12H | 3.38
P12F | 1.75
P12E | 4.57
P12T | 3.78
P12W | 3.85
P12K | 3.83
P12S | 4.01
P12V | 2.99
P12D | 4.85
P12L | 2.79
P12N | 3.98
I9M | 2.5
I9P | 2.23
I9V | 2.94
I9F | 3.22
I9T | 3.8

Variant | protein stability index
I9G | 3.59
I9C | 2.66
I9Q | 3.62
I9D | 4.1
I9A | 3.04
I9W | 2.37
I9H | 3.24
I9N | 3.31
I9K | 3.53
I9R | 2.67
I9S | 3.33
I9E | 3.58
I9L | 2.14
I9Y | 2.43
D16C | 2.4
D16G | 2.18
D16A | 2.72
D16I | 1.92
D16K | 2.21
D16E | 2.73
D16F | 1.9
D16H | 2.81
P3M | 4.21
P3L | 3.88
P3I | 3.96

Variant | protein stability index
P3H | 4.13
P3Q | 4.09
P3G | 4.01
P3T | 3.9
P3C | 3.54
P3N | 4
P3K | 2.99
P3Y | 3.54
P3S | 3.78
P3F | 3.85
P3D | 5.34
P3E | 5.25
P3V | 3.86
P3A | 3.79
P3W | 2.94
P3R | 2.27
V2T | 4.92
V2H | 4.86
V2S | 5.06
V2F | 4.78
V2C | 4.32
V2I | 4.37
V2Q | 5.26
V2G | 5.17
V2K | 5

Variant | protein stability index
V2W | 4.53
V2Y | 5.18
V2E | 5.7
V2R | 4.84
V2M | 5.26
V2D | 5.52
V2L | 5
V2N | 5.14
V2A | 4.97
P6G | 1.81
P6D | 2.56
P6R | 1.71
P6H | 1.83
P6T | 2.13
P6W | 2.25
P6I | 2.24
P6A | 2.34
P6N | 2
P6M | 2.63
P6F | 1.59
P6Y | 2.39
P6L | 2.62
P6K | 1.78
P6V | 2.11
P6C | 1.69

Variant | protein stability index
P6S | 2.4
P6E | 2.98
P6Q | 2.67
V14A | 3.13
V14N | 4.43
V14W | 3.59
V14P | 3.83
V14I | 3.11
V14T | 3.49
V14F | 3.57
V14D | 4.63
V14H | 3.86
V14E | 4.36
V14L | 3.9
V14Y | 3.21
V14K | 3.45
V14M | 3.1
V14C | 2.25
V14Q | 4.01
V14G | 4.21
V14S | 3.52
V14R | 3.75
H1Q | 5.07
H1D | 5.46
H1R | 4.62

Variant | protein stability index
H1K | 4.82
H1N | 5.29
H1F | 3.54
H1Y | 2.25
H1M | 5.08
H1E | 5.06
H1T | 5.62
H1W | 4.33
H1G | 5.41
H1P | 5.28
H1S | 5.2
H1A | 5.22
H1I | 4.77
H1L | 4.51
H1C | 4.48
H1V | 5.32
